Substrate in the data set: O=CCO
Briefly: O2 consumption. The following applies: thiamin diphosphate (ThDP), Mg2+ active site; donor (and acceptor) substrate. The format is biochemical, Escherichia coli.

B1: 1-deoxy-D-xylulose 5-phosphate synthase (DXPS) (Escherichia coli K-12) (protein)
chain: SFDIAKYPTLALVDSTQELRLLPKESLPKLCDELRRYLLDSVSRSSGHFASGLGTVELTVALHYVYNTPFDQLIWDVGHQAYPHKILTGRRDKIGTIRQKGGLHPFPWRGESEYDVLSVGHSSTSISAGIGIAVAAEKEGKNRRTVCVIGDGAITAGMAFEAMNHAGDIRPDMLVILNDNEMSISENVGALNNHLAQLLSGKLYSSLREGGKKVFSGVPPIKELLKRTEEHIKGMVVPGTLFEELGFNYIGPVDGHDVLGLITTLKNMRDLKGPQFLHIMTKKGRGYEPAEKDPITFHAVPKFDPSSGCLPKSSGGLPSYSKIFGDWLCETAAKDNKLMAITPAMREGSGMVEFSRKFPDRYFDVAIAEQHAVTFAAGLAIGGYKPIVAIYSTFLQRAYDQVLHDVAIQKLPVLFAIDRAGIVGADGQTHQGAFDLSYLRCIPEMVIMTPSDENECRQMLYTGYHYNDGPSAVRYPRGNAVGVELTPLEKLPIGKGIVKRRGEKLAILNFGTLMPEAAKVAESLNATLVDMRFVKPLDEALILEMAASHEALVTVEENAIMGGAGSGVNEVLMAHRKPVPVLNIGLPDFFIPQGTQEEMRAELGLDAAGMEAKIKAWLA
For the protein B1, the Michaelis constant (Km) amounted to 920 ± 120 µM.

Broadly, the Km is the concentration of substrate that gives half-maximal velocity.

(Values after publication PMC8015787.)
